# Molecular target: SYD-2/Liprin-α N-terminal fragment (coiled-coils and IDR) (UniProt Q21049)
# Assay: GFP-trap pull-down, Coomassie gel
# Settings: reference: SAD-1-phosphorylated wild-type SAM; sites S896,S901,S904
substance,measurement,value
"SYD-2/Liprin-α SAM domains, 844-1139 (from UniProt Q21049) SAD-1-phosphorylated SAM(3A)",binding against the reference,stronger
